Measurements reported in article PMC6927032.

The substances below were run against TglB (Pseudomonas syringae) (assay: fluorescence polarisation).

Substance | IC50
TglA I41A (peptide) | 32 µM
TglA V48A (peptide) | 113 µM
TglA I44A (peptide) | 24 µM
TglA F49A (peptide) | 4.2 µM
TglA D40A (peptide) | 15 µM
TglA E45A (peptide) | > 300 µM
TglA K47A (peptide) | 255 µM
TglA S46A (peptide) | 11 µM
TglA E42A (peptide) | 10.5 µM
WT TglA (peptide) | 8 µM
TglA V43A (peptide) | 98 µM
